{"source": "patent US20110239327A1", "about": "“Nematicidal Effects of Cysteine Proteinases and Methods of Use Thereof to Treat Nematode Infestation” (priority 2007, published 2011)", "molecules": {"B1": {"name": "actinidin (protein, UniProt P00785 127-380, looked up)", "Actinidain": "LPSYVDWRSAGAVVDIKSQGECGGCWAFSAIATVEGINKIVTGVLISLSEQELIDCGRTQNTRGCNVGYITDGFQFIINNGGINTEENYPYTAQDGECNVDLQNEKYVTIDTYENVPYNNEWALQTAVTYQPVSVALDAAGDAFKHYSSGIFIGPCGTAIDHAVTIVGYGTEGGIDYWIVKNSWDTTWGEEGYMRILRNVGGAGTCGIATMPSYPVKYNNQNHPKSYSSLINPPAFSMSNDGPVGVDDGQRYSA", "notes": "cysteine proteinase from kiwi fruit (Actinidia chinensis), Merops C01.007"}}, "key": {"Heterorhabditis megidis": {"test_system": "Heterorhabditis megidis", "assay": "In vitro effect on the beneficial nematode Heterorhabditis megidis", "assay_type": "cell-based", "procedure": "(§1) Eggs of M. incognita race 1 from North Carolina State University, USA were collected from tomato-infected roots grown in a glasshouse at 23° C. in a 16:8 h light-dark regime. Eggs were extracted using 1% hypochlorite (NaClO) solution (Hussey and Barker, 1973) or by picking egg masses from tomato-infected roots. Juveniles (J2) were hatched from the eggs and egg masses in water. Heterodera glycines eggs were obtained from soil samples stored in Rothamsted-Research. Second stage juveniles (J2) were hatched from the eggs in water after 10 days. Pratylenchus penetrans were a gift from Dr. Deeren Anne-Marie from the Institute for Agricultural and Fisheries Research, Merelbeke, Belgium. The beneficial nematodes Steinernema feltiae and Heterorhabditis megidis were a gift from Dr. Paul Williams from Becker Underwood.\n(§2) Control wells were set up which contained J2s and distilled water with 16 mM L-cysteine. Each enzyme concentration and the controls were set up in duplicate (i.e. n=2). The actual number of active J2s per well was counted with the aid of an Olympus inverted microscope, prior to the addition of the enzymes, and then the J2s were incubated in the dark at room temperature for 2 hs, 16 hs, 24 hs or 40 hr. The number of live and dead J2s per well was counted after each enzyme incubation. The same procedure was followed when setting up further experiments to compare the effects of these enzymes with Heterodera glycines J2, Pratylenchus penetrans, Steinernema feltiae and Heterorhabditis megidis.\n(§3) The beneficial nematodes Hetorhabditis megidis and Steinernema feltiae were incubated with dilutions of actinidin, bromelain and pappain from papaya latex (see concentrations used in table 3). These nematodes reacted differentially to these cysteine proteinases (Tables 4 and 5). […] S. feltiae were dead at all concentrations of actinidin tested. […] After 16 hs of observation the enzyme solutions were diluted with water (to half of the initial concentrations) however, no change in nematode movement was observed after 24 hs."}, "Steinernema feltiae": {"test_system": "Steinernema feltiae", "assay": "In vitro effect on the beneficial nematode Steinernema feltiae", "assay_type": "cell-based", "procedure": "as §1, §2, §3"}, "M. incognita J2": {"test_system": "M. incognita J2", "assay": "In planta bioassay, two soil applications: nematode infection of tomato roots", "assay_type": "in vivo, M. incognita on tomato plants", "conditions": "two soil applications of enzyme (250 μM papain, 2.2 μM bromelain, 3.3 mM actinidin as printed), soil 16% organic matter, 11 days", "procedure": "Oxamyl is supplied as 10% liquid Vydate. 125 μl of a solution 1000 fold dilution of 10% formulation (kindly supplied by DK from NIU) was applied to 5 g of the soil mixture with 16% organic matter, to give a partial nematicidal effect. Soil mixtures were wetted with PBS pH 7.2, 16 hrs prior nematode application of 1000 or 2000 M. incognita J2. Infected soil mixtures were treated with water (control) or 250 μM of active papain in 16 mM of L-cysteine or a combination of Vydate and 250 μM of active papain in 16 mM of L-cysteine. After 48 hs tomato seedlings one month old were added to the treated soils. After 11 days the roots were washed free of soil and chopped to approximately 2 mm pieces. The root pieces of each tomato plant was placed in muslin bags and stained with acid-fuchsin. The stained roots were examined under microscope and all the nematodes present in the roots were counted. […] After 48 hours tomato seedlings one month old were added to the treated soils and after 11 days post infection nematode development inside root tissues was assessed as described above.\nThe avermectins are macrocyclic lactones produced by the actinomycete Streptomyces avermitilis. […] After 48 hs tomato seedlings one month old were added to the treated soils and after 11 days post infection nematode development inside root tissues was assessed as described above. […]"}, "[1]": {"conditions": "enzyme concentration A (Table 3): actinidin 3.3 mM, bromelain 2.2 mM, papain 250 uM"}, "[2]": {"conditions": "enzyme concentration B: actinidin 1.7 mM, bromelain 1.1 mM, papain 125 uM"}, "[3]": {"conditions": "enzyme concentration C: actinidin 840 uM, bromelain 560 uM, papain 62.5 uM"}}}
{"molecule": "B1", "values": [{"measurement": "nematode motility or behaviour", "setting": "Heterorhabditis megidis; [1]", "value": "All paralysed"}, {"measurement": "nematode motility or behaviour", "setting": "Heterorhabditis megidis; [2]", "value": "All paralysed"}, {"measurement": "nematode motility or behaviour", "setting": "Heterorhabditis megidis; [3]", "value": "All paralysed"}, {"measurement": "effect on H. megidis", "setting": "Heterorhabditis megidis; higher concentrations", "value": "paralysed"}, {"measurement": "effect on H. megidis", "setting": "Heterorhabditis megidis; lower concentrations", "value": "only affected slightly"}, {"measurement": "state of S. feltiae", "setting": "Steinernema feltiae; all concentrations of actinidin tested", "value": "dead"}, {"measurement": "nematode motility or behaviour", "setting": "Steinernema feltiae; [1]", "value": "All dead"}, {"measurement": "nematode motility or behaviour", "setting": "Steinernema feltiae; [2]", "value": "All dead"}, {"measurement": "nematode motility or behaviour", "setting": "Steinernema feltiae; [3]", "value": "All dead"}, {"measurement": "nematode motility or behaviour", "setting": "Steinernema feltiae; enzyme concentration D: actinidin 420 uM, bromelain 280 uM, papain 31 uM", "value": "All dead"}, {"measurement": "nematode motility or behaviour", "setting": "Steinernema feltiae; enzyme concentration E: actinidin 210 uM, bromelain 140 uM, papain 15 uM", "value": "All dead"}, {"measurement": "nematode motility or behaviour", "setting": "Steinernema feltiae; enzyme concentration F: actinidin 105 uM, bromelain 70 uM, papain 7.5 uM", "value": "All dead"}, {"measurement": "reduction of nematode infection of plants", "setting": "M. incognita J2", "value": 99, "unit": "%"}]}
